Test results reported in the supplement of paper PMC10126150.
± gives the standard deviation of the averaged measurements.

Tested on: ATP
Experiment: switch fluorescence ratio, 500 uM ATP over buffer (Cy3 cluster intensity, sum of 5 cycles each) (fold (ratio)); higher = stronger signal-on switching upon ATP binding; sequences stand for … in TCGTCGGCAGCGTCAGATGTGTATAAGAGACAGTTTTTTTTTTTTTTTTTTTTTTTTT…TC
Conditions: aptamer strand: ATP DNA aptamer (quencher-CACCTGGGGGAGTATTGCGGAGGAAGG + anchor), 100 nM annealed; ATP concentration: 500 uM
How it was run: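 The quencher-labelled ATP aptamer, at 100 nM, was annealed to Cy3-labelled switching-strand clusters on a modified Illumina MiSeq flow-cell. The clusters were imaged in selection buffer, then after 15 min with 500 uM ATP at 22 °C, and this buffer/ATP cycle ran five times with NaOH stripping and re-annealing between runs. Per-cluster fluorescence ratios, summed target-cycle over summed buffer-cycle Cy3 intensity, were averaged per switch-domain sequence. Clusters outside 100-1000 RFU were excluded.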
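Also: ATP exposure 15 min at 22 °C before imaging.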

Sequence | switch fluorescence ratio
ATTCGGTAGT | 1 ± 0.013
ATTCGGTTAT | 1.01 ± 0.045
ATTCGTATAT | 0.969 ± 0.051
ATTCGTCAAT | 1.18 ± 0.13
ATTCGTCTAG | 0.989 ± 0.012
ATTCGTGTTT | 0.978 ± 0.017
ATTCGTTTGC | 1 ± 0.057
ATTCTCAGTG | 1.01 ± 0.038
ATTCTCCATT | 1.0229 ± 0.00088
ATTCTGACCG | 1.09 ± 0.068
ATTCTGAGGC | 1.03 ± 0.045
ATTCTTCGC | 1.06 ± 0.011
ATTCTTTCTT | 1.002 ± 0.0018
ATTGAAGCTT | 1.009 ± 0.0089
ATTGAAGGGA | 1.018 ± 0.0059
ATTGAAGGGG | 0.975 ± 0.016
ATTGAATGGT | 1.006 ± 0.0027
ATTGACATAT | 1.054 ± 0.0046
ATTGACGTGT | 1 ± 0.035
ATTGACTGAT | 1.03 ± 0.044
ATTGAGAGAT | 1.03 ± 0.014
ATTGAGCTGT | 0.9812 ± 0.0062
ATTGAGGCAA | 1.22 ± 0.066
ATTGAGGGGG | 1.04 ± 0.052
ATTGAGGGTT | 0.985 ± 0.019

Sequence | switch fluorescence ratio
ATTGAGTAA | 0.976 ± 0.025
ATTGAGTAGC | 1.01 ± 0.032
ATTGAGTTTA | 0.99883 ± 7e-05
ATTGATATTT | 0.998 ± 0.019
ATTGATCTCG | 1.04 ± 0.083
ATTGATGGGC | 0.9644 ± 0.0037
ATTGATGTTC | 0.99 ± 0.053
ATTGATTAGT | 1.12 ± 0.18
ATTGATTGAC | 1.05 ± 0.043
ATTGATTGAG | 0.986 ± 0.022
ATTGATTTAA | 0.9989 ± 0.0086
ATTGCAAATC | 1.027 ± 0.0094
ATTGCAGTTT | 0.986 ± 0.022
ATTGCCACGG | 1.033 ± 0.0089
ATTGCCGCTC | 1.04 ± 0.036
ATTGCGATTC | 1.159 ± 0.01
ATTGCGGTCA | 1.01 ± 0.048
ATTGCTCGA | 0.993 ± 0.02
ATTGCTGGCG | 0.939 ± 0.039
ATTGGAAGGC | 0.967 ± 0.017
ATTGGACGTT | 0.988 ± 0.016
ATTGGAGCAG | 1.055 ± 0.0098
ATTGGATCGA | 1.01 ± 0.054
ATTGGATCGG | 0.9956 ± 0.0095
ATTGGCAAAA | 1.01 ± 0.035

Sequence | switch fluorescence ratio
ATTGGCATGC | 0.996 ± 0.027
ATTGGGCGAG | 0.993 ± 0.013
ATTGGGGGGA | 0.982 ± 0.018
ATTGGGGGGG | 1.02 ± 0.044
ATTGGGGTG | 1.03 ± 0.11
ATTGGGGTTC | 1.01 ± 0.067
ATTGGGGTTG | 1 ± 0.017
ATTGGGTATT | 0.9749 ± 0.007
ATTGGGTCTA | 0.978 ± 0.021
ATTGGGTGTC | 0.985 ± 0.039
ATTGGTAACG | 0.9981 ± 0.0037
ATTGGTAGGC | 1.03 ± 0.023
ATTGGTAGTT | 0.9687 ± 0.0067
ATTGGTCAAG | 0.985 ± 0.039
ATTGGTCTGC | 1.02 ± 0.04
ATTGGTGTCT | 1.01 ± 0.034
ATTGGTTGTT | 1.01 ± 0.036
ATTGGTTTAA | 0.9981 ± 0.002
ATTGGTTTCG | 0.9835 ± 0.0051
ATTGGTTTGT | 0.998 ± 0.013
ATTGGTTTTT | 1.07 ± 0.19
ATTGTACAGT | 1.02 ± 0.025
ATTGTACGCT | 1.015 ± 0.0056
ATTGTAGAGC | 1.02 ± 0.01
ATTGTAGGGA | 1 ± 0.015

Sequence | switch fluorescence ratio
ATTGTGATCT | 0.989 ± 0.021
ATTGTGCATT | 0.979 ± 0.052
ATTGTGCGTA | 0.9711 ± 0.0057
ATTGTGTCAC | 1 ± 0.028
ATTGTGTCTA | 0.9935 ± 0.007
ATTGTGTCTT | 0.99 ± 0.013
ATTGTGTGGG | 0.999 ± 0.036
ATTGTGTTAG | 1.03 ± 0.055
ATTGTTAATT | 1.013 ± 0.01
ATTGTTACGG | 0.998 ± 0.024
ATTGTTCTCC | 1.04 ± 0.057
ATTGTTGCTG | 0.993 ± 0.061
ATTGTTTCTA | 1 ± 0.014
ATTGTTTTGA | 0.9818 ± 0.0088
ATTGTTTTTG | 1.01 ± 0.026
ATTTAAATGT | 1.01 ± 0.023
ATTTAAATTA | 1.01 ± 0.017
ATTTAACCCG | 1.02 ± 0.044
ATTTAACGGG | 1.006 ± 0.0056
ATTTAAGCTT | 1.07 ± 0.048
ATTTAAGGCT | 0.99 ± 0.012
ATTTAATTAC | 1.02 ± 0.0013
ATTTACAGAT | 1.04 ± 0.03
ATTTACATTT | 1.02 ± 0.011
ATTTACCGAA | 1.05 ± 0.019

Sequence | switch fluorescence ratio
ATTTACTCAT | 1.038 ± 0.0012
ATTTAGGATG | 1.01 ± 0.021
ATTTAGGCTG | 1.062 ± 0.0089
ATTTAGTTTT | 0.976 ± 0.013
ATTTATCTTT | 1 ± 0.032
ATTTATTATG | 0.989 ± 0.038
ATTTATTGAA | 0.996 ± 0.027
ATTTATTTCT | 1.03 ± 0.064
ATTTCAACGT | 0.9879 ± 0.0034
ATTTCAATTT | 1.01 ± 0.02
ATTTCAGCTG | 0.982 ± 0.027
ATTTCGAGTT | 0.972 ± 0.014
ATTTCGATTA | 0.9965 ± 0.0067
ATTTCGTGGT | 0.9759 ± 0.0096
ATTTCGTTTC | 1.05 ± 0.1
ATTTGAAGAG | 1.01 ± 0.014
ATTTGAAGCG | 0.998 ± 0.024
ATTTGAAGGC | 0.9629 ± 0.0082
ATTTGACTCT | 0.986 ± 0.021
ATTTGAGCTG | 0.947 ± 0.13
ATTTGAGGAT | 0.972 ± 0.027
ATTTGAGGTT | 1.006 ± 0.005
ATTTGATATG | 0.965 ± 0.031
ATTTGATTCA | 0.997 ± 0.012
ATTTGCCCGA | 1 ± 0.012

Sequence | switch fluorescence ratio
ATTTGCGTTT | 0.999 ± 0.019
ATTTGGAGG | 0.986 ± 0.013
ATTTGGATCT | 0.9725 ± 0.0068
ATTTGGGTTA | 1.01 ± 0.019
ATTTGGGTTT | 0.992 ± 0.027
ATTTGGTAAA | 0.9859 ± 0.009
ATTTGGTAAT | 0.952 ± 0.01
ATTTGGTGCT | 0.999 ± 0.018
ATTTGGTTAG | 0.987 ± 0.025
ATTTGTAAAG | 1 ± 0.034
ATTTGTATGT | 0.963 ± 0.013
ATTTGTGAGA | 0.9979 ± 0.0051
ATTTGTGCAG | 0.954 ± 0.013
ATTTGTGTGG | 0.973 ± 0.021
ATTTGTTAGA | 1.03 ± 0.021
ATTTGTTTAC | 1.011 ± 0.0065
ATTTGTTTAT | 1.09 ± 0.17
ATTTGTTTTG | 0.997 ± 0.053
ATTTTAAGTA | 0.987 ± 0.031
ATTTTAGAAT | 1.02 ± 0.03
ATTTTATGAC | 1.008 ± 0.0025
ATTTTATGCC | 1.01 ± 0.031
ATTTTATTAG | 1.01 ± 0.021
ATTTTCACC | 1.0095 ± 0.00081
ATTTTCGAGT | 1 ± 0.021

Sequence | switch fluorescence ratio
ATTTTCGGGG | 1.01 ± 0.039
ATTTTCGTTG | 0.9666 ± 0.0095
ATTTTGCGGA | 0.968 ± 0.013
ATTTTGCTTT | 0.965 ± 0.021
ATTTTGGCAA | 1.42 ± 0.3
ATTTTGGCTT | 0.963 ± 0.037
ATTTTGGGTT | 1 ± 0.022
ATTTTGTATG | 0.976 ± 0.026
ATTTTGTCCA | 1.02 ± 0.021
ATTTTGTCTC | 1.01 ± 0.013
ATTTTTAGGC | 1.11 ± 0.11
ATTTTTAGTG | 1.008 ± 0.0068
ATTTTTATGG | 0.996 ± 0.036
ATTTTTATTT | 1.07 ± 0.12
ATTTTTCGTT | 1 ± 0.03
ATTTTTCTAG | 1.01 ± 0.03
ATTTTTCTGC | 1.03 ± 0.039
ATTTTTGAGA | 0.986 ± 0.017
ATTTTTGAGG | 1.02 ± 0.017
ATTTTTGGCG | 0.9867 ± 0.0088
ATTTTTGGGC | 0.993 ± 0.024
ATTTTTGGTT | 1.01 ± 0.042
ATTTTTTCGA | 0.981 ± 0.014
ATTTTTTTT | 0.996 ± 0.024
CAAAAAAAAA | 1 ± 0.017

Sequence | switch fluorescence ratio
CAAAAAAATG | 0.999 ± 0.03
CAAAAAGATT | 1.01 ± 0.017
CAAAAAGGGG | 0.964 ± 0.039
CAAAAATGTT | 1.17 ± 0.19
CAAAACTACT | 1.06 ± 0.011
CAAAAGTAAC | 1.07 ± 0.032
CAAAAGTTGG | 0.9923 ± 0.0052
CAAAATATGC | 1.14 ± 0.12
CAAAATTTCG | 1.016 ± 0.0015
CAAACAGTTT | 0.994 ± 0.029
CAAACCAACG | 1.345 ± 0.0044
CAAACGCGCG | 0.997 ± 0.045
CAAACTTTGG | 1.006 ± 0.0077
CAAAGAGTAG | 1.002 ± 0.005
CAAAGTAAAA | 1.04 ± 0.054
CAAAGTTCGC | 0.9838 ± 0.0076
CAAATAGGCT | 0.984 ± 0.028
CAAATCAGTG | 1.002 ± 0.01
CAAATCGTCG | 0.957 ± 0.022
CAAATGGGAT | 0.9951 ± 0.0099
CAAATGGGCC | 0.993 ± 0.019
CAAATGGGTT | 1.01 ± 0.083
CAAATTGGAA | 0.961 ± 0.043
CAAATTTGC | 0.9315 ± 0.0035
CAAATTTGG | 1.05 ± 0.031
